Results from PMC11098746 (2024).
No end group written: not given here.

B1: 49 (protein)
chain: SDSYSTGGNEKEKIFMDNYKYMWTYIYFLQKRIMMKKLSHPLYMSKKFILLHNPKDIEEFRIPLKDTLWSYVDRNSIKGFININLDSIFDIDLKEYYVHDKENMANSEKSEDLECIDAYVQKTNEIYYNMADTKDEAYIFICKKCKHIYKDIKECREKSMQLMIQNMKITVPQIRLKYDKKNRNNEEIIINIPVTYVLSNLLSSLKKTVTYNTDDLNNACNVLIKMLHLDLLKILYNLQYHNGIFNGITEKYLIEFRNIFVKRQKTNTEDNNDMIWEECFVLKKSIDKIMNINSFLLTKSRNRYMDYLQNRRKRYRDILFMITYNVADMNLNTYIKSIYNYIHISTKIIEDIQYIYNQEVYATFFVRTELIETYLLRNPKQLKNTCSIYIMITISWFFNQINIGMYNKNKNVYDLFKEKFSKSNVKQIINSIYTNNVENKANILQICNDAMTNTIELIKKVIKNYYKQNNVLSNYNINFAGLIKFIDIQILRMKFIQSTLEKQPLIEYDTLNDDHLNNDAIIKRENMVCMMKYISNKINTYISLLKKSDLQTIMLQNYDKYNIYLDTYFTHNENVFFCSSPGQYLIIKIFFYSFFNILNIYG
modifications: bait human Fc-tagged dimer
B2: 35 (protein)
chain: NNADINKAWKKNTYVDKKLNKLFNRALGESQVNGELASEEVKEKILDLLEEGNTLTESVDDNKNLEEAEDIKENILLSNIEEPKENIIDNLLNNIGQNSEKQESVSENVQVSDELFNELLNSVDVNGEVKENILEESQVNDDIFNSLVKSVQQEQQHNVEEKVEESVEENDEESVEENVEENVEENDDESVASSVEESIASSVDESIDSSIEENVAPTVEEIVAPTVEEIVAPSVVESVAPSVEESVEENVEESVAENVEESVAENVEESVAENVEESVAENVEESVAENVEESVAENVEEIVAPTVEESVAPTVEEIVAPSVEESVAPSVEEIVVPTVEESVAENVEEIVAPSVEEIVAPSVEEIVAPTVEESVAPTVEEIVAPSVEESVAPSVEEIVVPTVEESVAENVEESVAENVEEIVAPSVEEIVAPSVEEIVAPSVEEIVAPSVEEIVAPSVEEIVAPSVEEIVAPSVEEIVAPSVEEIVAPTVEEIVAPTVEEIVAPSVEEIVAPTVEESVAENVATNLADNLLSNLLGGIETEEIKDSILNEIEEVKENVVTTILENVEETTAESVTTFSNILEEIQENTITNDAIEEKLEELHENVLSAALENTQSEEEKKEVIDVIEEVKEEVATTLIETVEQAEEESASTITEIFENLEENAVESNENVAENLEKLNEAVFNTVLDKVEETVEISGESLENNEMDKAFFSEIFDNVKGIQENLLTGMFRSIETSIVIQSEEKVDLNENVVSSILDNIENMKEGLLNKLENIASTEGVQETVTEHVEQNVYVDVDVPAMKDQFLGILNEAGGLKEMFFNLEDVFKSESDVITVEEIKDEPVQKEVEKETVSIIEEMEENIVDVLEEEKEDLTDKMIDAVEESIEISSDSKEETESIKDKEKDVSLVVEEVQDNDMDESVEKVLELKNMEEELMKDAVEINDITSKLIEETQELNEVEADLIKDMEKLKELEKALSEDSKEIIDAKDDTLEKVIEEEHDITTTLDEVVELKDVEEDKIEKVSDLKDLEEDILKEVKEIKELESEILEDYKELKTIETDILEEKKEIEKDHFEKFEEEAEEIKDLEADILKEVSSLEVEEEKKLEEVHELKEEVEHIISGDAHIKGLEEDDLEEVDDLKGSILDMLKGDMELGDMDKESLEDVTAKLGERVESLKDVLSSALGMDEEQMKTRKKAQRPKLEEVLLKEEVKEEPKKKITKKKVRFDIKDKEPKDEIVEVEMKDEDIDEDIEEDVEEDIEEDKVEDIDEDIDEDIDEDIGEDKDEVIDLIVQKEKRIEKVKEKKKKLEKKVEEGVSGLKKHVDEVMKYVQKIDKEVDKEVSKALESKNDVTNVLKQNQDFFSKVKNFVKKYK
modifications: bait human Fc-tagged dimer
B3: 43 (protein)
chain: LFQEYQCYGSSSNTRVLNELNYDNAGTNLYNELEMNYYGKQENWYSLKKNSRSLGENDDGNNEDNEKLRKPKHKKLKQPADGNPDPNANPNVDPN
modifications: bait human Fc-tagged dimer
B4: 4 (protein)
chain: KVYQGQFYLKKNEKIHYLTKFSCNIGTCQFSIKMKLRDNIAAKLLNNYYKLNNKALKEMENDKDDGNNHNNNKYDDDNNNNNNRANKLLHMDYDNAYYVLSNQDLEYIPQRITLMQDIEQRYVNKNDKCYAFGNLKNSHMFNIPFYFKYSDLVNSKTYNLKNFINNKYSMSFNAIHSELKNNKLLQSEILNYGPILNEKNSNYAYKEIYAKTTHRVHVWFLMFDDCYDNFIRNLKLNIKTKLAYWEYLLHASKKFDISSLNDMDIKQDTSYNDFQNEETEKDIYSKENINNNNNNNMNNNMNEKKNKAIFYKSFNFDKITLLENPKRFLFLEEQFTKSEINDISFFLKYYQFKKMKNFNNMYNNLYKNGYYEQVIDYIYQNEGFHIEYEVNIFQTNKAHFSYE
modifications: bait human Fc-tagged dimer
B5: 40 (protein)
chain: ISTHDTCDEWSEWSACTHGISTRKCLSDSSIKDETLVCTKCDKWGEWSECKDGRMHRKVLNCPFIKEEQECDVNNEMAEDTHMNNAYIYFNADDGDNEYEDHDDKNDDDKNYDNENDDDKNDDDKNDDDKNDDDKNDDDKNDDEENYNDAEEKVKNNDIHNSAANSNNEVTNFIQIKDKIMIKHKTTNIHPVNFIQEKYTRNNKYRSDNFAKILNNMNHINNNNYNSRSSSTSSKNARGYRGGSSNMYPHVPNYASSSVHNSANNERKSDEDLDNIEGDNIAKEERIVPINNKNYDNHDEHSNIHEHDTSRNVDNEKYNSNDDLPNLATYDYDMNNDAYKKNHMKKPMDSIKEEQTKQENNQNNEKVSSSEKQNDDISALYEHMNTKDQEHTQHEQPNDAAHGHFEDYSK
modifications: bait human Fc-tagged dimer
B6: 60 (protein)
chain: GIITGKLNYFGTFSLKIFAKTYFQYKINTYSNLYSYCGISQEYNKAKSTCESCPIGTFWNSEKLLCENCQKYIENTATLKNGAKLKTDCLCSPGYEYSDKSSKCEKCKPGYYKKSVGNFICIKGCPINEKSITYGAKSYAEMDCKCIEGYYRKEDKCVLCLSNYYCPGNELIKPCDKNKISKEGVIHKNDCICKENYIKDNKNNNCVYCASIAKILGKPIYCSLCDPIYFHEDIYKNIFLLPNNIHNYGLINNIYNYDEDLSLQGNIMKYAYFHKTTNIERNFAHYINIKNIYHTFNNNINNYDYLTNSKFAIEIDIPEPKKCIFCDSGYYIKKKKCISCTTKYCEGFNHNPKACPKNSVVNKMKASSIFDCSCKRGYGILNERRNAYSNTITCQICPQNFFKHIISDDSCFPCPLYTYTLNQGATSILQCLPKKGYFIYMFKSINIDYLRYKFDINTENRIYNYFENNNKIFDEDVYNFFLNKQYSKFFYNTENK
modifications: bait human Fc-tagged dimer
B7: 5 (protein)
chain: YNIKSGNTANNIKYVNVLDNDRDINTHSVLPEVENVIERKDIYRQINFMETFVSSNNMMHDREKHTSNDAGSYEITGIVDGMKIGHPISVALGSQYSNYFDYLQIVHLDYTNSRFSFTVGEGKYYLRTYGSTYMTPSAIKIKVPCEKCKFINSEYSGIIKIIPYETNNNLFIYNWVLQTSSPLALENINTVFSDEADLIHGNSLSEEFKIDSSAAATSLNTFYGIVLHGIWSSEYAERLLTVISEFPDCVKMSAHDKNARSKQRKNQKWILVNEDLGSFDMKMEVCEEVNCDYSAIIHVSKHAFEYSKKLVHNRGRNGRYYSRRVEKILIRALLSLDFSLFITYFQQKHGVTLLDPQYDYELITNMAGYSSNNYQSWNHNLEELVELATSWDEYPKGLQKVQGLSYLLRRKNGAKHPVYPTAPAVAFPAGSQNNAFIEFMESAFVNYVDISHLVIHEVAHFIWVNTVSKELKEKWIQIGQWYKEPLSPSEWATKLEVEFVSAYAHDKNPAEDFAESMATYVLNSKLLNSRSFDKFKWIQDNLFGGGFYITTGTHKFDVINLGNEVYYFPGKVTRVRAKVLGSPTEDKLVKIYISLLSSDGSEGCAKHGYARIFSEQQTFRDLYFHTEDRSPCSHKLYGEFTMNKHESRGRWTAESMIFTGENNIERYVGLGSFHFYLYVNNQNEDVEKPIPLLDSISIYTHNAAETNDALLRLHVMVLENELIKEHGGPYASFAAHENKAYSYESRTYKMYPPEFNTLMLKADYFIRDINTRGFREVNMDSCKSYTNMDTRNLKCFQVLNPVTIPKYCIGSTYFLRQVSIEDIAGNLETVNIASDKYSARLHPIGVRDKQKPVVSNVRVSSKPANEYHDGETIVSLSFNVHDNLAGVYYIFVYLRDPHGGKHRSDIDRASLPTGTENKQINHKILLPKGSMGGTWMLEEIKAVDSCKNEARNIYTHSVYVQND
modifications: bait human Fc-tagged dimer
B8: 31 (protein)
chain: EGYICDFSSEKYNIYFDEQKDDVICYHEIYEGDSIGIIIPRYKEGNENIYIKTNCFNEVSLESSGNNALSIYDIFNDDEITLYDQDSIFYTEYISSILHIKKVKKNTYLHCVFESKDVNGLTTHKGIAKITIKNVKHNENKKLINNDVDNNAALSFKKKLTNKLVIDLLNKIDIIKDDKLNNQYNNDDNKFLVEAKPGDILYLLGVKRKNKKYLYVDQDCPLHFERIGSIYKYIFPIINEKEEIYNCALYVDDDVSTNKKIVGNLKITFVSKNPAINDINIDVLKKYIHSDIEQKLYKLLYGEISNSVNKYAEQNVDINNADISAIQFMNLNSDNCNNNECIEFFNNAACSSYCGKGYRLLNGNNHMYDEQMVVPCYNGECKPEDEIEP
modifications: bait human Fc-tagged dimer
B9: 68 (protein)
chain: LIRNSNTPQAFLIPELNNNEKNEFNNNEKNEMNNNLNNEFNNNEENCDIQKIAEEMMENLLNENDMYTNIMLSLQNRLSDDYLCSEPKYENICIHEKDKISLSFPCSNPKYEKLIHKFTFKKLCNSKAAFNNALLKSFIEEDEEQNTFSLMLKQFKILLTCVDDELKDIYKESIDLLVDLKTSITELTQKLWSGKMVNVLKKREFLITGILCELRNGNKAPLISKSLEFENLGILKMNNEELLNEAYNAFSDYYYFFPYFIQKLLEKGGMIERLIKIHENLAKYRTKDMVNKINAQSKGEVLNNEDILNKLNAYKHYTKHGATSFIQSREVKIVNQNVNNDDTTKNQQQNVNNNEKLNNNNNNNNNQQVNNNNNNNNQQVNNNNNNNNNQVNNNNNNNNNQVNNNNYNNNNQVNNNNNNNQQVNNNNNYNNQLNNNNFNNNLQVNKNDKHVPKNNHATATHTNNILYNPLYSINPEKPKDIIKLLKDLIKYLHIVKFENNEPTTNIDEEGIRKLLENSFFDLNDDILIVRLLLKPQTVILTVIQSFMLMTPSPSRDAKAYCKKALINDQLVPTNDANILSEENELVNNFATKYVLIYEKMKLQELKEMEESKLKMKYSKTNLAALQVTNPQNNKDKNDASNKNNNPNNAATPLIAVVTDLSGEKTEDIINNNVDIATLSVGVQNTFQGP
modifications: bait human Fc-tagged dimer

molecular target: FGFR4 ectodomain (Homo sapiens, UniProt P22455); experiment: AVEXIS normalised luminescence

Binder | binding score
B1 | 0.996
B2 | 0.753
B3 | 1.37
B4 | 0.9
B5 | 1.75
MNEAKEEKTNMRNNHLSRVTIEILPSDEDNDIFDINDALLDELIGINNI (also: human Fc-tagged dimer) [65] | 1.05
B6 | 0.959
B7 | 0.798
B8 | 1.28
B9 | 0.952
